Entries after “also recorded” stand apart in the source; their conditions may differ.
Experiments:
tinnitus = settings: intratympanic injection; cited from earlier work
retinal cells = settings: glaucoma, elevated homocysteine; cited from earlier work
[1] = tested on: monkey model of experimental glaucoma; settings: cited from earlier work
[2] = tested on: streptozotocin-induced diabetic mouse model; settings: cited from earlier work
[3] = tested on: amino terminal domain of GluN1; experiment: Competitive binding assay, Whole Cell ELISA with HEK293T-ATD cells; settings: for Binding of one biotinylated mAb in the presence of increasing concentrations of the other mAb (2G6 versus 5F5): HEK293T-ATD cells, competitor 50 to 0.2 μg/mL, biotinylated mAb 5 μg/mL; for Competition of 1D1 with mixed 2G6 and 5F5 mAbs for binding to NMDAR ATD: experiments similar to Example 2
Excerpt: We assessed the binding epitopes of the 2G6 and 5F5 mAbs. We tested whether they bind overlapping epitopes on GluN1, using a competitive binding assay with HEK293T-ATD cells, which express the amino terminal domain of GluN1. Sharma, R., Al-Saleem, F. H., Panzer, J., Lee, J., Puligedda, R. D., Felicori, L. F., Kattala, C. D., Rattelle, A. J., Ippolito, G., Cox, R. H., Lynch, D. R. and Dessain, S. K. (2018), Monoclonal antibodies from a patient with anti-NMDA receptor encephalitis. Ann Clin Transl Neurol, 5:935-951, which is incorporated herein by reference.
HEK293T-ATD cells (10^5 cells/well) were tested in a Whole Cell ELISA with luminescent detection method. We biotinylated the 5F5 and 2G6 or 5F5 using the EZ-Link™ Hydrazide-Biotin kit (Thermo Fisher), then generated dilution series of 2G6 or 5F5 (50 μg/mL to 0.2 μg/mL) and added to them the plate for 1 h at 37° C., followed by three washes with PBST. We then added the biotinylated 5F5 or 2G6 mAbs at 5 μg/mL, or PBS, and incubated for 1 h at 37° C. followed by three washes with PBST. The Pierce Streptavidin Poly-HRP substrate (Thermo Fisher) was added at 1:2000 dilution and incubated for 1 h at 37° C. This was followed by SuperSignal ELISA Femto Substrate, (1:1 ratio) (Thermo Fisher) and relative luminescence values were measured using the Synergy II plate reader. Duplicate binding curves were plotted and the linear portions were used for analysis using Excel.
We measured binding of one mAb, biotinylated, in the presence of increasing concentrations of the other.
Experiments similar to those done in Example 2 were used to test whether the 1D1 binds a site on the NMDAR ATD that overlaps 2G6 and 5F5. In these experiments, 1D1 binding was tested in competition with mixed 2G6 and 5F5 mAbs.

NMDAR GluN1 antigen = NMDAR GluN1 antigen (Mus musculus, UniProt P35438); experiment: Immunofluorescence staining of mouse retinas (normoxic; oxygen induced retinopathy model); format: binding; settings: chimeric antibodies
NMDAR GluN1 epitopes = molecular target: T1, NMDAR GluN1 epitopes (Mus musculus, UniProt P35438); experiment: Antibody binding in mouse retina, model of retinitis pigmentosa
T1 construct: from tissue; host or cells: mouse retina, model of retinitis pigmentosa
Excerpt: Left panels show DAPI staining, middle panels show antibody staining, right antibodies show merged imaging.

[4] = tested on: oxygen induced retinopathy (OIR) in mice; experiment: Mouse oxygen induced retinopathy (OIR) model, hyperoxia induced hemorrhage; format: in vivo; settings: hyperoxia P7 to P12; eye injected at P12; other eye PBS
Description: Neonatal mice were exposed to hyperoxia (75% oxygen) from postnatal day 7 (P7) to P12, and then returned to room air. Upon return to room temperature, at P12, the eye on the right was injected with 5F5 antibody against NMDAR, while the left eye in the figure was injected with PBS.
We next examined the potential effects of the NMDAR antibodies on pathological retinal neovascularization. We used the well characterized model of oxygen induced retinopathy (OIR) in mice. In this model, neonatal mice are exposed to hyperoxia (75% oxygen) from postnatal day 7 (P7) to P12, and then returned to room air. This approach, induces pathological neovascularization in the retina. In FIGS. 3A and 3B, a comparison is shown between two eyes of a mouse exposed to hyperoxia. Upon return to room temperature, at P12, the eye in FIG. 3B was injected with 5F5 antibody against NMDAR, while the eye in FIG. 3A was injected with PBS. […] This is a wholly unexpected finding.

[5] = hyperoxic conditions (75% oxygen P7 to P12, oxygen induced retinopathy model)

Row | Molecule | Binding of one biotinylated mAb in the presence of increasing concentrations of the other mAb (2G6 versus 5F5) [3] | Competition of 1D1 with mixed 2G6 and 5F5 mAbs for binding to NMDAR ATD [3] | Antibody binding in mouse retina (NMDAR GluN1 antigen; [5]) | Antibody binding in mouse retina (NMDAR GluN1 antigen; normoxic conditions) | Antibody binding in mouse retina (epitope expression) (NMDAR GluN1 epitopes) | also measured
1 | CN[C@]1(c2ccccc2Cl)CCCCC1=O [Esketamine] | – | – | – | – | – | Activity in treatment of tinnitus (tinnitus): has shown activity in treatment of tinnitus
2 | C[C@]12N[C@H](Cc3ccccc31)c1ccccc12 [MK-801] | – | – | – | – | – | Homocysteine toxicity to retinal cells via NMDAR (retinal cells): inhibited
3 | CC12CC3CC(C)(C1)CC(N)(C3)C2 [Memantine] | – | – | – | – | – | Retinal damage [1]: reduced retinal damage; Retinal toxicity [2]: reduce retinal toxicity
4 | 5F5: monoclonal human anti-NMDAR (GluN1) antibody; variable heavy chain SEQ ID NO: 1, light chain SEQ ID NO: 3; chimeric form in Examples 5-8 (antibody, listed as Mus musculus, listed as Homo sapiens, V domains shown) VH: QVQLVESGGGVVRPGGSLRLSCAASGFTFSTYSLHWVRQAPGKGLEWVGVILYDGSKKYYADSVRGRFTISRDNSKSTLNLDMSSLRPDDTAVYYCARDPIAVAPRPSGMVPQGFDYWGQGTLVTVSS VL: QSVVTQPPSASGTPGQRVTISCSGSSSNIGRNFVFWYRQLPGTAPKVLIYKNIQRPSGVPDRISGSRSGSSASLAISGLRSEDEADYYCASWDDSLSGVVFGGGTKLTVL | Bind Different Sites on the NMDAR | not inhibited by 1D1 | shows staining; also recorded: show binding in outer segments of mouse retina | None of the anti-NMDAR antibodies or the control antibody bound to mouse retina | expressed in the mouse retina | Antibody binding in mouse retina (NMDAR GluN1 antigen; hyperoxic conditions (75% oxygen P7 to P12, oxygen induced retinopathy model), listed as 5G5): immunoreactive with the outer segment of the photoreceptors as well as the choriocapillaris layers of the mouse retina; Retinal bleeding / pathological neovascularization of the treated eye [4]: Prevents Hyperoxia Induced Hemorrhage; also recorded: the treated eye shows no bleeding
5 | 2G6: monoclonal human anti-NMDAR (GluN1) antibody; variable heavy chain SEQ ID NO: 9, light chain SEQ ID NO: 11 (antibody, listed as Mus musculus, listed as Homo sapiens, V domains shown) VH: QVQLQESGGGVVQPGRSLRLSCAASGFSFNAFAMHWVRQAPGKGLEWVARISHYGSDDYYADSVKGRFTISRDNSQNTLFLQMNSLKAEDTGVYYCWRGFTLVRGVISRNPINRFSGMDVWGQGTTVTVS VL: SYELMQPPSVSVSPGQTARITCSGDALPKKYAYWYQQKSGQAPILVIYEDNKRPSGIPERFSGSSSGTMATLTISGAQVEDEADYFCYSTDSSGNHGVFGGGTKLTVL | Bind Different Sites on the NMDAR | not inhibited by 1D1 | expressed in the mouse retina; also recorded: immunoreactive with the outer segment of the photoreceptors as well as the choriocapillaris layers of the mouse retina; also recorded: show binding in outer segments of mouse retina | None of the anti-NMDAR antibodies or the control antibody bound to mouse retina | expressed in the mouse retina | –
6 | 1D1: monoclonal human anti-NMDAR (GluN1) antibody; variable heavy chain SEQ ID NO: 5, light chain SEQ ID NO: 7 (antibody, listed as Mus musculus, listed as Homo sapiens, V domains shown) VH: LVQLVESGGGVVQSGRSLRLSCAASGFAFHTFTIHWVRQAPGKGLDWVTAIYFDGTKKYYADSVKGRFTVSRDNSKNTVYLQMNGLRGEDTAVYYCARARYSYGLSFDYWGQGTPVTVSS VL: QSVVTQPPSVSAAPGQKVTISCSASSSYLGSNYVSWYQQLPGTAPKLLIYDNNKRSSGISDRFSGSKSGTSATLDITGLQTGDEADYYCGAWDSSLSVVVFGGGTKLTVL | – | not inhibited by 2G6 and 5F5 binding | expressed in the mouse retina; also recorded: immunoreactive with the outer segment of the photoreceptors as well as the choriocapillaris layers of the mouse retina; also recorded: show binding in outer segments of mouse retina | None of the anti-NMDAR antibodies or the control antibody bound to mouse retina | – | –
